# Results taken from US20260207779.
# Test system: TALE-TadA8e(V106W) (Escherichia coli)
# Test: cell_activity
# Conditions: paired TALE-TadA8e(V106W) without nickase, value is the maximum over three loci
Substance,activity,activity (barely above sequencing error)
MT-ND4 target,< 0.39%,–
MT-RNR2 target,–,< 0.39%
MT-ND1 target,< 0.39%,–
